Patent US20170051040A1 (UNIVERSITE PIERRE ET MARIE CURIE PARIS 6, published 2017)
Non-standard residues stand in square brackets, D forms with d. No end group written: not given here.

Biological target: CCR2 on mouse monocytes (mouse, UniProt P51683 1-373)
Experiment: cell-based or functional assay

CCR2 on mouse monocytes, sequence (P51683 whole entry): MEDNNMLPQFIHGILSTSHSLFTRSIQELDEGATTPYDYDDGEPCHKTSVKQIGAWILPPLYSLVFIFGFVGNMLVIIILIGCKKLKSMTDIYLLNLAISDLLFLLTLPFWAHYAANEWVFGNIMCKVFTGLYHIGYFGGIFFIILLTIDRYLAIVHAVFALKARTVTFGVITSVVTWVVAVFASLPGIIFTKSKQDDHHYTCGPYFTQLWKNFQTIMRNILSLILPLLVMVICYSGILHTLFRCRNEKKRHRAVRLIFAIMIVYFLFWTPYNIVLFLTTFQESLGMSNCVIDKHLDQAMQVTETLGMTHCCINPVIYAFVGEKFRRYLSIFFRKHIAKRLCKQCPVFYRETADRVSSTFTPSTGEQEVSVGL

[dL]G[dT][dF][dL][dK][dC] [ECL1 (C) inverso] was tested. Which “inhibition of migration of mouse monocytes and classical monocytes, IC50” value did it give?
The value was 2000 nM.
